The source of these data is patent publication US6361968 (US Dept. of Health and Human Services, dated 1997).

The labels stand for the following.
B1: 3heptad-F (designed binder)
chain: ASMTGGQQMGRDPGGGLARENEELEKEAEELEQENAELEQEVLELESRNDRLRKEVEQLERELDTLRGIFRQLPESSLVKAMGNCA
notes: also called aZIP 3heptadF (CEBP specific)
B2: C/EBP bZIP domain (GCN4-C/EBP chimeric protein) (other)
chain: SEYQPSLFALNPMGFSPLDGSKSTNENVSASTSTAKPMVGQLIFDKFIKTEEDPGKAKKSVDKNSNEYRVRRERNNIAVRKSRDKAKQRNVETQQKVLELTSDNDRLRKRVEQLSRELDTLRGIFRQLPESSLVKAMGNCA
notes: Made in E. coli; forms a homodimer; also called C/EBP-C/EBP; wild type C/EBP
B3: c-Myc bHLH protein (other)
chain: NDKRRTHNVLERQRRNELKRSFFALRDQIPELENNEKAPKVVILKKATAYILSIQADEHKLTSEKDLLRKRREQLKHKLEQLRNSGA
B4: 0heptad-F (F zipper with the basic region deleted) (designed binder)
chain: ASMTGGQQMGRDPGGGTQQEVLELESRNDRLRKEVEQLERELDTLRGIFRQLPESSLVKAMGNCA
notes: Made in E. coli; the initiator methionine is processed off; also called heterodimerizing zipper; 0heptad-F (H)
B5: 4heptadFos (c-Fos with the basic region replaced by four acidic heptad repeats) (designed binder)
chain: MASMTGGQQMGRDPDLEQRAEELARENEELEKEAEELEQENAELEAETDQLEDEKSALQTEIANLLKEKEKLEFILAAHRPACKIP
notes: how the two entries divide the protein is not explained; also called aZIP 4heptadFos; aFos

Like-named read-outs stand apart in the source and are kept apart here.

Data set [1] addresses B2. Kind of data set: CD thermal melt, equimolar mixture, 150 mM KCl, Kd at 25 C. How it is done: (§1) Table 1 presents the melting temperature (T_m,° C.), $\Delta G$ and k_d at 25° C. for CD thermal melts of a variety of proteins either as homodimers or an equimolar mixture of two proteins. […] The (L) denotes 'low' salt conditions (50 mM KCl, 25 mM Tris pH 8.0, 0.5 mM EDTA, 1 mM DTT) and the (H) denotes regular salt conditions (12.5 mM potassium phosphate, pH 7.4, 150 mM KCl, 0.25 mM EDTA, and 0.5 mM DTT). The latter conditions were used in Table 2. "0heptad-F" represents the F zipper with the basic region deleted. The RMS error in $\Delta G$ is 0.2 kcal/mol and 0.5 kcal/mol for homo- and heterodimers respectively.
(§2) The two chimeras were mixed with the four different length acidic extensions appended to the F zipper and their stability was determined from CD thermal melts.

Data set [2] deals with T1, GBF-C/EBP chimeric protein (GBF: Arabidopsis thaliana; C/EBP: rat …).
T1 chain: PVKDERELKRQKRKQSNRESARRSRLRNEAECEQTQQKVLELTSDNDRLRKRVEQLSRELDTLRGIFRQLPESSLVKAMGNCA
Described as above. How it is done: as §1, §2

The target of data set [3] is T2, VBP-C/EBP chimeric protein (VBP: chicken; C/EBP: rat liver).
T2 chain: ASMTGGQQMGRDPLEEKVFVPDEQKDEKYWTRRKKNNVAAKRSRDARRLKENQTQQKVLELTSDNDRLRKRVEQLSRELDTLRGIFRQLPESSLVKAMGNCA
The description is as above. The procedure: as §1, §2

Data set [4] deals with the molecule itself. Kind of data set: CD thermal melt, homodimer, 150 mM KCl. How it is done:
(§3) CD analyses were performed as described in Materials and Methods of D. Krylov et al., 1994, *EMBO J.,* 13:2849–2861. T_m values were calculated as described in D, Krylov et al., 1994, Ibid, converted to K_{d(25)} and $\Delta G(25)$ using a $\Delta C_p$ of –0.96 kcal/mol° C.^-1 calculated from a T_m versus $\Delta H$ plot for all of the proteins as described herein. All thermal melts were reversible.
as §1

Data set [5] concerns the molecule itself. The experiment in a line: CD thermal melt, homodimer, 150 mM KCl, Kd at 25 C. How it is done:
as §3, §1

The target of a further data set is T3, bZIP VBP protein (chicken, UniProt Q92172 235-319, limits assumed).
T3 sequence (looked up): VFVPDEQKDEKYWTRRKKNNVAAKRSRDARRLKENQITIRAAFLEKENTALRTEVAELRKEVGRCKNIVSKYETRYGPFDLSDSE
The experiment in a line: thermal melt of the mixture equals the sum of the two homodimer curves (FIG. 5B).

Data set [6] deals with B2. The experiment in a line: CD thermal melt, equimolar mixture, 150 mM KCl. How it is done:
as §1, §2

In data set [7] the target is T1, GBF-C/EBP chimeric protein. Kind of data set: CD thermal melt, equimolar mixture, 150 mM KCl. How it is done: as §1, §2
For data set [8], the target named is T2, VBP-C/EBP chimeric protein. The experiment in a line: CD thermal melt, equimolar mixture, 150 mM KCl. How it is done:
as §1, §2

Data set [9] deals with the molecule itself. The experiment in a line: CD thermal melt, homodimer, 150 mM KCl, Kd at 25 C. How it is done:
as §3, §1
This is another data set of the same source.

Data set [10] deals with the molecule itself. The experiment in a line: CD thermal melt, homodimer, low salt (50 mM KCl), Kd at 25 C. The procedure:
as §3, §1

The target of data set [11] is T4, 0heptadMax (dimerization domain of Max without an acidic extension) (UniProt P61244 44-113, limits assumed).
T4 construct: domain: dimerization domain; also called OheptadMax
Kind of data set: heterodimer with c-Myc, dimerization study of FIG. 9.

Data set [12] deals with B2. Kind of data set: CD thermal melt, equimolar mixture, 150 mM KCl. The procedure: as §3, §1
Data set [13] has as its target B2. Kind of data set: CD thermal melt, equimolar mixture, 150 mM KCl, Kd at 25 C. The procedure: as §3, §1
In data set [14] the target is T5, c-Jun (unmodified) (UniProt P05412 241-331, limits assumed). The experiment in a line: from thermal melts of FIG. 4, Kd at 37 C.
Data set [15] deals with B2. The experiment in a line: thermal melt of the mixture equals the sum of the two homodimer curves (FIG. 5A).
Data set [16] addresses T5, c-Jun (unmodified). Kind of data set: thermal melt of the mixture (FIG. 4).

T5 sequence (P05412 241-331 limits assumed): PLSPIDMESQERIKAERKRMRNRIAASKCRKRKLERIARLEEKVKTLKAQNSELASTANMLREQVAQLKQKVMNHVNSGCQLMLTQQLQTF
T4 sequence (P61244 other isoform, or with tags, fused parts or gaps limits assumed): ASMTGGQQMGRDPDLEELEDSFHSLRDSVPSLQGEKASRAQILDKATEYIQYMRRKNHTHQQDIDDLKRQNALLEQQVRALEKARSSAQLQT

As for B1, the Kd in [1] amounted to 0.04 nM; in data set [2], 0.04 nM; in [3] it was 0.02 nM; in [5], 2000 nM. Further, the “deltaG at 25 C” value was -7.9 kcal/mol in data set [4], -14.3 kcal/mol in data set [6], -14.2 kcal/mol in [7] and -14.7 kcal/mol in data set [8]. Besides, the binding result with bZIP VBP protein was “no binding”. For the same molecule, the Tm in data set [6] came out at 63.8 °C; in data set [7], 64 °C; in data set [8], 64.2 °C.
Consider B2, for which the dissociation constant Kd in data set [9] is 10 nM; in [10] it was 30 nM; in data set [5], 10 nM. Also, the “deltaG at 25 C” value in data set [4] was -10.9 kcal/mol.
In data set [11], B3 had a Kd of 0.6 nM.
With B4, the Kd was 2000 nM in data set [9]; 3 nM in data set [1]; 2 nM in data set [2]; 1 nM in data set [3]; 3 nM in [13]; 1000 nM in [5]. For the same molecule, the Tm in data set [12] worked out at 55.4 °C; in data set [6], 55.4 °C; in data set [7], 55.7 °C; in data set [8] it was 55.1 °C. For the same molecule, the “deltaG at 25 C” value in data set [4] was -8 kcal/mol; in data set [6], -11.8 kcal/mol; in [7] it was -11.9 kcal/mol; in [8] it was -12.2 kcal/mol.
In the data set with c-Jun (unmodified) [14], B5 gave a dissociation constant (Kd) of 6 nM. In addition, the binding result in data set [15] is “no binding”. In addition, the Tm with c-Jun (unmodified) [16] came to 61 °C.
